From paper doi:10.1101/2025.03.12.642038, “Structural, biophysical and biological analysis and characterisation of IRF4 DNA-binding domain mutations associated with multiple myeloma” come the findings set out here.

Assay in all cases: FP; FP: PBS + 0.05% Tween20, 5 nM DNA, 1 h, room temperature; SPR: Biacore S200, SA chip, protein 0.1-4500 nM, running buffer not given in material; errors are SD
(In general: In SPR one partner is held on a chip, and binding of the other changes the refractive index at the surface.)

For one data set, the target named is T1, IRF4 DBD C99A (Homo sapiens, UniProt Q15306 20-132, C99A).
T1 sequence: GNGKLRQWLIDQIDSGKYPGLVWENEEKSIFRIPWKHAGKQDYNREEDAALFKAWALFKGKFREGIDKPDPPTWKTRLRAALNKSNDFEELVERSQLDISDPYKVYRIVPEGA
Particulars: protein: recombinant; tags: N-terminal His8-linker-His8-TEV, cleaved; label: 3' fluorescein (FAM); hairpin, TTTT loop.

A further data set has as its target T2, IRF4 DBD C99R (Homo sapiens, UniProt Q15306 20-132, C99R).
T2 sequence: T1 sequence with A80R
Particulars: protein: recombinant; tags: N-terminal His8-linker-His8-TEV, cleaved; label: 3' fluorescein (FAM); hairpin, TTTT loop.

The next data set concerns the target T3, IRF4 DBD S114N (Homo sapiens, UniProt Q15306 20-132, S114N).
T3 sequence: T1 sequence with A80C, S95N
Particulars: protein: recombinant; tags: N-terminal His8-linker-His8-TEV, cleaved; label: 3' fluorescein (FAM); hairpin, TTTT loop.

A further data set has as its target T4, IRF4 DBD T95R (Homo sapiens, UniProt Q15306 20-132, T95R).
T4 sequence: T1 sequence with T76R, A80C
Particulars: protein: recombinant; tags: N-terminal His8-linker-His8-TEV, cleaved; label: 3' fluorescein (FAM); hairpin, TTTT loop.

The target of another data set is T5, IRF4 DBD C99S (Homo sapiens, UniProt Q15306 20-132, C99S).
T5 sequence: T1 sequence with A80S
Particulars: protein: recombinant; label: 3' fluorescein (FAM); hairpin, TTTT loop.

The target of a further data set is T6, IRF4 DBD T95K (Homo sapiens, UniProt Q15306 20-132, T95K).
T6 sequence: T1 sequence with T76K, A80C
Particulars: protein: recombinant; tags: N-terminal His8-linker-His8-TEV, cleaved; label: 3' fluorescein (FAM); hairpin, TTTT loop.

Another data set addresses T7, IRF4 DBD K123R (Homo sapiens, UniProt Q15306 20-132, K123R).
T7 sequence: T1 sequence with A80C, K104R
Particulars: protein: recombinant; tags: N-terminal His8-linker-His8-TEV, cleaved; label: 3' fluorescein (FAM); hairpin, TTTT loop.

Another data set addresses T8, IRF4 DBD K59R (Homo sapiens, UniProt Q15306 20-132, K59R).
T8 sequence: T1 sequence with K40R, A80C
Particulars: protein: recombinant; tags: N-terminal His8-linker-His8-TEV, cleaved; label: 3' fluorescein (FAM); hairpin, TTTT loop.

The target of another data set is T9, IRF4 DBD D117A (Homo sapiens, UniProt Q15306 20-132, D117A).
T9 sequence: T1 sequence with A80C, D98A
Particulars: protein: recombinant; tags: N-terminal His8-linker-His8-TEV, cleaved; label: 3' fluorescein (FAM); hairpin, TTTT loop.

The target of a further data set is T10, IRF4 DBD D117H (Homo sapiens, UniProt Q15306 20-132, D117H).
T10 sequence: T1 sequence with A80C, D98H
Particulars: protein: recombinant; tags: N-terminal His8-linker-His8-TEV, cleaved; label: 3' fluorescein (FAM); hairpin, TTTT loop.

Substitutions are numbered along the chain they refer to.

B1: IRE hairpin (FAM) (structured_DNA)
DNA: CTTGGTTTCACTTCCTGCGTTTTCGCAGGAAGTGAAACCAAG
B1: the Kd – broadly, a measure of binding affinity in units of concentration – with IRF4 DBD C99A is 353 ± 169 nM; in the data set with IRF4 DBD C99R, 279 ± 286 nM; with IRF4 DBD S114N it was 181 ± 14 nM; with IRF4 DBD T95R, 151 ± 72 nM; with IRF4 DBD C99S, 243 ± 238 nM; with IRF4 DBD T95K it was 298 ± 154 nM. The Kd amounted to 143 ± 34 nM with IRF4 DBD K123R, 350 ± 275 nM with IRF4 DBD K59R, 109 ± 31 nM with IRF4 DBD D117A and 131 ± 28 nM with IRF4 DBD D117H.
